Experimental data published in PMC5750218, “Protein-inspired antibiotics active against vancomycin- and daptomycin-resistant bacteria” (Nature Communications, 2018).
Read-outs that look alike come from different tables or passages of the source.

Key:
[1] = for half-life / microsomal CLint: liver microsomes; for Microsome-Predicted EH: hepatic extraction ratio
Procedure: Performed by CDCO, Monash University, Australia.
The metabolic stability assay was performed by incubating each test compound (1 μM) with human (Xenotech, Lot #1210057) and mouse (Xenotech, Lot #1110071) liver microsomes at 37 °C and 0.4 mg mL^−1 protein concentration. The metabolic reaction was initiated by the addition of a nicotinamide adenine dinucleotide phosphate (NADPH)-regenerating system (i.e. NADPH is the cofactor required for cytochrome P450-mediated metabolism) and quenched at various time points over the 60 min incubation period by the addition of acetonitrile. Control samples (containing no NADPH) were included (and quenched at 2, 30 and 60 min) to monitor for potential degradation in the absence of cofactors. Concentrations of each test compound in quenched samples were determined by ultra performance liquid chromatography mass spectrometry (UPLC-MS) (Waters/Micromass Xevo triple quadrupole mass spectrometer). […] In addition, glucuronidation was not considered in this study and may require further assessment using alternative test systems.
Test compound concentration vs. time data were fitted to an exponential decay function to determine the first-order rate constant for substrate depletion. In cases where clear deviation from first-order kinetics was evident, only the initial linear portion of the profile was utilised to determine the degradation rate constant (k). Each substrate depletion rate constant was then used to calculate: (1) a degradation half-life, where t 1/2 = ln(2) k ^−1; (2) an in vitro intrinsic clearance value, where CLint,in vitro = k [microsomal protein content (0.4 mg mL^−1)]^−1; (3) a predicted in vivo hepatic intrinsic clearance value, where CLint = CLint,in vitro × [liver mass (g)/body weight (kg)] × [microsomal protein (mg) / liver mass (g)]; and (4) a predicted in vivo hepatic extraction ratio, where E H = CLblood Q ^−1 = Clint [Q + Clint]^−1.
Scaling parameters assumed were: human liver mass 20 g liver / kg body weight, human microsomal protein 40 mg g^−1 liver mass[49], [50], human hepatic blood flow (Q) 20.7 mL min^−1 kg body weight^−1 [51], mouse liver mass 87.5 g liver / kg body weight, mouse microsomal protein 45 mg g^−1 liver mass[51], mouse hepatic blood flow (Q) 90 mL min^−1 kg body weight^−1 [51].

[2] = tested on: bioluminescent MSSA Xen-29; test: Bioluminescence IP infection in vivo model (neutropenic mice); design: species or system Staphylococcus aureus; settings: SC: 200 mg kg^−1 vancomycin, 50 mg kg^−1 daptomycin, 25 mg kg^−1 19 or 24
Procedure: Performed at the University of Queensland, following similar previous literature procedures. Xen-29 (Caliper LifeSciences), a methicillin-sensitive S. aureus (MSSA) strain which contains a copy of the modified luxABCDE operon of Photorhabdus luminescens was taken from the storage at −80 °C and freshly seeded on agar plates for overnight growth at 37 °C. From the overnight culture preparation, a single colony (tested for bioluminescence) was diluted into 10 mL of MHB and incubated overnight at 37 °C. A mid log-phase subculture was obtained by adding 100 μL of overnight subculture in 10 mL MHB and incubated for a further 2–3 h. Finally, the OD600 value of the bacterial suspension was determined and the colony forming units per millilitre (CFU mL^−1) was extrapolated. The suspension was then diluted out accordingly in order to achieve a 2.5 × 10^8 CFU mL^−1 solution (2.5 × 10^7 CFU in 100 μL). […] Mice were monitored for signs of normal behaviour (i.e. grooming, eating, drinking, sleeping and alertness) during and following dosing. […] Xen-29 colonies were then counted, with the CFU mL^−1 blood calculated. […] Luminescent images were quantified with the IVIS Living Image software where the total flux (number of photons/second) was calculated by a user defined region of interest (ROI) covering the infection sites.

S. aureus ATCC 43300 = test: Membrane depolarisation assay (diSC3(5)); assay type: cell-based, Staphylococcus aureus; settings: 16 µg mL^−1, 30 min, MRSA ATCC 43300
Procedure: Antibiotic-induced bacterial cytoplasmic membrane depolarisation was determined using the fluorescent dye 3,3-dipropylthiacarbocyanine diSC3(5) (Sigma Aldrich, Australia) as previously described. Briefly, early exponential phase cells were pelleted and washed twice in 10 mM HEPES buffer (pH 7.4) containing 50 µg mL^−1 of CaCl2 and 5 mM Glucose, and then re-suspended in the same buffer (2 × 10^8 CFU mL^−1). diSC3(5) was added to a final concentration of 1.5 µM and incubated at room temperature in the dark to enable dye uptake and fluorescence quenching. After 30 min, cells were diluted 50-fold in assay buffer and 45 µL of cells were added to a 384-well black walled polystyrene plate (Corning, CLS3573) (Note: NBS plates were not employed, and no polysorbate-80 was added to avoid potential effects on membrane permeability, or interference with fluorescence as previously reported. The MICs of compounds in polystyrene plates are listed in Supplementary Table 12). Background data was collected before adding compounds using a Tecan Infinite® m1000 Pro Multi-mode reader (excitation/emission 612/665 nm) to ensure fluorescence quenching. Compounds were added to a final concentration of 16 µg mL^−1 and fluorescence was monitored for 30 min. Data were corrected by subtraction of background response (diSC3(5) in the presence of untreated cells, no compound). […] Each sample was tested in quadruplicate and independent assays were performed twice showing similar results. Data were analysed and presented using Prism software.

[3] = cited from earlier work; for log decrease: CAMHB with polysorbate-80; for log reduction from initial inoculum: nutrient-depleted media, ref Belley AAC 2009 53, 918

| Structure (SMILES) | half-life ([1]; human) [h] | microsomal CLint ([1]; human) [µL/min/mg] | Microsome-Predicted EH ([1]; human) | half-life ([1]; mouse) [h] | microsomal CLint ([1]; mouse) [µL/min/mg] | Microsome-Predicted EH ([1]; mouse) | Change in bioluminescence signal (total flux) after inoculation [2] | Dissipation of membrane potential (diSC3(5) fluorescence) (S. aureus ATCC 43300) | other results |
| --- | --- | --- | --- | --- | --- | --- | --- | --- | --- |
| CCCCCCCCCCC(=O)N[C@@H](CCCCN)C(=O)N[C@@H](CCCCN)C(=O)N[C@@H](CCCCNC(=O)[C@H]1NC(=O)[C@H]2NC(=O)[C@H](NC(=O)[C@@H]3NC(=O)[C@H](CC(N)=O)NC(=O)[C@H](NC(=O)[C@@H](CC(C)C)NC)[C@H](O)c4ccc(c(Cl)c4)Oc4cc3cc(c4O[C@@H]3O[C@H](CO)[C@@H](O)[C@H](O)[C@H]3O[C@H]3C[C@](C)(N)[C@H](O)[C@H](C)O3)Oc3ccc(cc3Cl)[C@H]2O)c2ccc(O)c(c2)-c2c(O)cc(O)cc21)C(=O)O [Compound 19, nC10CO-KK-K(Vancomycin)-OH] | > 4.17 | < 7 | < 0.23 | > 4.17 | < 7 | < 0.23 |  |  |  |
| CCCCCCCCCC(=O)N[C@@H](Cc1c[nH]c2ccccc12)C(=O)N[C@H](CC(N)=O)C(=O)N[C@@H](CC(=O)O)C(=O)N[C@@H]1C(=O)NCC(=O)N[C@@H](CCCN)C(=O)N[C@@H](CC(=O)O)C(=O)N[C@H](C)C(=O)N[C@@H](CC(=O)O)C(=O)NCC(=O)N[C@H](CO)C(=O)N[C@@H]([C@H](C)CC(=O)O)C(=O)N[C@@H](CC(=O)c2ccccc2N)C(=O)O[C@@H]1C [Compound 4, Daptomycin] |  |  |  |  |  |  | progressive reduction in the bioluminescence signal | no effect |  |
| CCCCCCCCCCC(=O)N[C@@H](CCCCN)C(=O)N[C@@H](CCCCN)C(=O)N[C@@H](CCCCN)C(=O)N[C@@H](CCCCNC(=O)[C@H]1NC(=O)[C@H]2NC(=O)[C@H](NC(=O)[C@@H]3NC(=O)[C@H](CC(N)=O)NC(=O)[C@H](NC(=O)[C@@H](CC(C)C)NC)[C@H](O)c4ccc(c(Cl)c4)Oc4cc3cc(c4O[C@@H]3O[C@H](CO)[C@@H](O)[C@H](O)[C@H]3O[C@H]3C[C@](C)(N)[C@H](O)[C@H](C)O3)Oc3ccc(cc3Cl)[C@H]2O)c2ccc(O)c(c2)-c2c(O)cc(O)cc21)C(=O)O [Compound 18, nC10CO-KKK-K(Vancomycin)-OH] | > 4.17 | < 7 | < 0.23 | 3.93 | 7 | 0.24 |  |  |  |
| CN[C@H]1C(=O)N[C@@H]2Cc3ccc(cc3)Oc3cc4cc(c3O[C@@H]3O[C@H](C(=O)O)[C@@H](O)[C@H](O)[C@H]3NC(=O)CCCCCCCCC(C)C)Oc3ccc(cc3Cl)[C@@H](O)[C@@H]3NC(=O)[C@H](NC(=O)[C@@H]4NC(=O)[C@@H](NC2=O)c2cc(cc(O)c2Cl)Oc2cc1ccc2O)c1ccc(O)c(c1)-c1c(O[C@H]2O[C@H](CO)[C@@H](O)[C@H](O)[C@@H]2O)cc(O)cc1[C@@H](C(=O)NCCCN(C)C)NC3=O [Compound 3, Dalbavancin] |  |  |  |  |  |  |  | no effect | log reduction ([3]; 32 µg mL-, 24h, ref Belley AAC 2016 60 4342): 3 log |
| CN[C@H](CC(C)C)C(=O)N[C@H]1C(=O)N[C@@H](CC(N)=O)C(=O)N[C@H]2C(=O)N[C@H]3C(=O)N[C@H](C(=O)N[C@H](C(=O)O)c4cc(O)cc(O)c4-c4cc3ccc4O)[C@H](O[C@H]3C[C@](C)(N)[C@@H](O)[C@H](C)O3)c3ccc(c(Cl)c3)Oc3cc2cc(c3O[C@@H]2O[C@H](CO)[C@@H](O)[C@H](O)[C@H]2O[C@H]2C[C@](C)(NCc3ccc(-c4ccc(Cl)cc4)cc3)[C@@H](O)[C@H](C)O2)Oc2ccc(cc2Cl)[C@H]1O [Compound 5, Oritavancin, reference compound] |  |  |  |  |  |  |  |  | log decrease ([3]; 4 µg mL-, 1h, ref Belley AAC 2016 60 4342): 4.5 log; log decrease ([3]; 4 µg mL-, 1h, ref Mckay, J Antimicrob Chemother 2009, 63 1191): 4.5 log; log reduction from initial inoculum ([3]; 4 µg mL-): 3 log; log decrease ([3]; 16 µg mL-, 30 min, ref Belley AAC 2016 60 4342): 4.5 log; log reduction from initial inoculum ([3]; 16 µg mL-, 3h, no polysorbate-80): approximately 4 log |
| CN[C@H](CC(C)C)C(=O)N[C@H]1C(=O)N[C@@H](CC(N)=O)C(=O)N[C@H]2C(=O)N[C@H]3C(=O)N[C@H](C(=O)N[C@H](C(=O)O)c4cc(O)cc(O)c4-c4cc3ccc4O)[C@H](O)c3ccc(c(Cl)c3)Oc3cc2cc(c3O[C@@H]2O[C@H](CO)[C@@H](O)[C@H](O)[C@H]2O[C@H]2C[C@](C)(N)[C@H](O)[C@H](C)O2)Oc2ccc(cc2Cl)[C@H]1O [Compound 1, Vancomycin] |  |  |  |  |  |  | progressive reduction in the bioluminescence signal | no effect |  |
